Measurements as given in the supplement of paper PMC9112550, “Optimization of the antimicrobial peptide Bac7 by deep mutational scanning” (BMC Biology, 2022).

Tested on: Escherichia coli TOP10
Experiment: shrunken log2 fold change of peptide-encoding DNA abundance (4.5 h post-induction vs induction); higher = less antimicrobial activity (less host growth inhibition)
Settings: time post-induction: 4.5 h; library: site-saturation at positions 5, 18, 19, 20
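Also: peptides expressed intracellularly from a pBAD plasmid library in pooled LB shake-flask culture, induced with 0.3% L-arabinose, DNA abundance read by NGS, three biological replicates, DESeq2 with apeglm shrinkage.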

Sequence | shrunken log2 fold change
RRIRNRPPRLPRPRPRPEWQPRP | -0.0264
RRIRSRPPRLPRPRPRPTFHPRP | -0.192
RRIRERPPRLPRPRPRPPDTPRP | -0.426
RRIRERPPRLPRPRPRPVIIPRP | -0.634
RRIRPRPPRLPRPRPRPTCRPRP | 0.418
RRIRVRPPRLPRPRPRPEEPPRP | 0.0911
RRIRKRPPRLPRPRPRPQYQPRP | -0.11
RRIRWRPPRLPRPRPRPQHMPRP | -0.459
RRIRWRPPRLPRPRPRPVFKPRP | 0.0598
RRIRCRPPRLPRPRPRPTEHPRP | 0.00581
RRIRQRPPRLPRPRPRPHMTPRP | -0.391
RRIRQRPPRLPRPRPRPIKFPRP | -0.282
RRIRLRPPRLPRPRPRPLNTPRP | -0.454
RRIRNRPPRLPRPRPRPTTWPRP | -0.246
RRIRHRPPRLPRPRPRPAVNPRP | -0.0508
RRIRLRPPRLPRPRPRPARYPRP | -0.0839
RRIRARPPRLPRPRPRPETWPRP | 0.369
RRIRLRPPRLPRPRPRPNVCPRP | -0.0138
RRIRSRPPRLPRPRPRPWNDPRP | -0.303
RRIRCRPPRLPRPRPRPDICPRP | -0.22
RRIRFRPPRLPRPRPRPHSEPRP | -0.276
RRIRMRPPRLPRPRPRPQNDPRP | -0.179
RRIRDRPPRLPRPRPRPMFYPRP | -0.305
RRIRCRPPRLPRPRPRPCETPRP | 0.0192
RRIRVRPPRLPRPRPRPSSIPRP | -0.128

Sequence | shrunken log2 fold change
RRIRPRPPRLPRPRPRPQCFPRP | 0.185
RRIRFRPPRLPRPRPRPWYHPRP | -0.14
RRIRYRPPRLPRPRPRPNGWPRP | -0.0316
RRIRHRPPRLPRPRPRPKPYPRP | -0.277
RRIRERPPRLPRPRPRPVFQPRP | -0.0545
RRIRSRPPRLPRPRPRPIRFPRP | -0.964
RRIRIRPPRLPRPRPRPEDFPRP | 0.00408
RRIRWRPPRLPRPRPRPNCVPRP | 0.0603
RRIRMRPPRLPRPRPRPSHLPRP | -0.123
RRIRSRPPRLPRPRPRPMLVPRP | -0.0894
RRIRKRPPRLPRPRPRPIFDPRP | 0.205
RRIRPRPPRLPRPRPRPSCMPRP | -0.279
RRIRMRPPRLPRPRPRPAIGPRP | 0.0174
RRIRERPPRLPRPRPRPPWIPRP | -0.042
RRIRWRPPRLPRPRPRPWIFPRP | -0.679
RRIRCRPPRLPRPRPRPYRYPRP | -0.262
RRIRFRPPRLPRPRPRPPVSPRP | 0.0761
RRIRIRPPRLPRPRPRPFEVPRP | -0.162
RRIRPRPPRLPRPRPRPTCSPRP | 0.265
RRIRNRPPRLPRPRPRPYRIPRP | -0.115
RRIRERPPRLPRPRPRPGVCPRP | 0.155
RRIRNRPPRLPRPRPRPPLHPRP | 0.0562
RRIRHRPPRLPRPRPRPARMPRP | -0.0768
RRIRLRPPRLPRPRPRPFWIPRP | -0.283
RRIRDRPPRLPRPRPRPNQPPRP | 0.0323

Sequence | shrunken log2 fold change
RRIRVRPPRLPRPRPRPAARPRP | 0.47
RRIRCRPPRLPRPRPRPHRVPRP | 0.135
RRIRWRPPRLPRPRPRPPFKPRP | 0.331
RRIRERPPRLPRPRPRPRVIPRP | 0.0506
RRIRTRPPRLPRPRPRPEGRPRP | 0.1
RRIRIRPPRLPRPRPRPIDSPRP | 0.0203
RRIRSRPPRLPRPRPRPMCDPRP | -0.147
RRIRCRPPRLPRPRPRPIYNPRP | -0.761
RRIRVRPPRLPRPRPRPLLCPRP | -0.642
RRIRIRPPRLPRPRPRPWQPPRP | -0.0185
RRIRQRPPRLPRPRPRPIRKPRP | -0.0469
RRIRHRPPRLPRPRPRPWARPRP | -0.00568
RRIRMRPPRLPRPRPRPHTPPRP | 0.137
RRIRIRPPRLPRPRPRPLDEPRP | -0.287
RRIRVRPPRLPRPRPRPQPGPRP | 0.255
RRIRPRPPRLPRPRPRPCIFPRP | -0.359
RRIRQRPPRLPRPRPRPTYKPRP | -0.549
RRIRERPPRLPRPRPRPQQDPRP | -0.108
RRIRKRPPRLPRPRPRPCICPRP | -0.14
RRIRCRPPRLPRPRPRPFRKPRP | -0.0377
RRIRVRPPRLPRPRPRPLLYPRP | -0.259
RRIRCRPPRLPRPRPRPVMWPRP | 0.131
RRIRNRPPRLPRPRPRPWPNPRP | -0.063
RRIRKRPPRLPRPRPRPDHKPRP | -0.0248
RRIRFRPPRLPRPRPRPYFPPRP | -0.599

Sequence | shrunken log2 fold change
RRIRSRPPRLPRPRPRPSFPPRP | -0.557
RRIRARPPRLPRPRPRPAHDPRP | 0.184
RRIRTRPPRLPRPRPRPFASPRP | -0.00185
RRIRIRPPRLPRPRPRPGCDPRP | 0.0474
RRIRNRPPRLPRPRPRPMNMPRP | -0.356
RRIRLRPPRLPRPRPRPDHGPRP | -0.147
RRIRARPPRLPRPRPRPFVDPRP | 0.302
RRIRVRPPRLPRPRPRPDAFPRP | 0.203
RRIRHRPPRLPRPRPRPFIHPRP | -0.1
RRIRRRPPRLPRPRPRPWQAPRP | 0.0707
RRIRARPPRLPRPRPRPPTVPRP | 0.468
RRIRYRPPRLPRPRPRPELCPRP | -0.403
RRIRERPPRLPRPRPRPYTYPRP | -0.0595
RRIRNRPPRLPRPRPRPPTGPRP | 0.154
RRIRIRPPRLPRPRPRPDYSPRP | -1.21
RRIRIRPPRLPRPRPRPCRCPRP | -0.319
RRIRRRPPRLPRPRPRPSCPPRP | 0.941
RRIRHRPPRLPRPRPRPWCFPRP | -0.688
RRIRYRPPRLPRPRPRPTHMPRP | -0.429
RRIRVRPPRLPRPRPRPNCMPRP | -0.222
RRIRWRPPRLPRPRPRPRQPPRP | 0.743
RRIRMRPPRLPRPRPRPATHPRP | -0.0207
RRIRSRPPRLPRPRPRPPRRPRP | 0.701
RRIRWRPPRLPRPRPRPRWKPRP | -0.0506
RRIRTRPPRLPRPRPRPQPCPRP | -0.0212

Sequence | shrunken log2 fold change
RRIRVRPPRLPRPRPRPMYLPRP | -0.0313
RRIRPRPPRLPRPRPRPGQLPRP | -0.0604
RRIRDRPPRLPRPRPRPLDGPRP | 0.0131
RRIRRRPPRLPRPRPRPSDDPRP | 0.209
RRIRVRPPRLPRPRPRPNEIPRP | -0.52
RRIRYRPPRLPRPRPRPGIQPRP | -0.0445
RRIRYRPPRLPRPRPRPRKDPRP | -0.288
RRIRKRPPRLPRPRPRPPRYPRP | 0.525
RRIRWRPPRLPRPRPRPNQTPRP | 0.0653
RRIRVRPPRLPRPRPRPKQAPRP | 0.243
RRIRFRPPRLPRPRPRPVACPRP | -0.347
RRIRARPPRLPRPRPRPNHTPRP | -0.605
RRIRLRPPRLPRPRPRPLNDPRP | -0.0903
RRIRMRPPRLPRPRPRPIDNPRP | 0.213
RRIRWRPPRLPRPRPRPGKMPRP | 0.0641
RRIRKRPPRLPRPRPRPPGPPRP | 1.04
RRIRDRPPRLPRPRPRPAEGPRP | 0.015
RRIRQRPPRLPRPRPRPARRPRP | 0.486
RRIRHRPPRLPRPRPRPINVPRP | -1.14
RRIRIRPPRLPRPRPRPAKWPRP | 0.109
RRIRVRPPRLPRPRPRPTACPRP | -0.124
RRIRPRPPRLPRPRPRPLILPRP | -0.559
RRIRMRPPRLPRPRPRPTVNPRP | 0.177
RRIRERPPRLPRPRPRPSDRPRP | -0.165
RRIRCRPPRLPRPRPRPDNNPRP | -0.661

Sequence | shrunken log2 fold change
RRIRHRPPRLPRPRPRPQCHPRP | -0.202
RRIRWRPPRLPRPRPRPSNKPRP | -0.403
RRIRGRPPRLPRPRPRPYPAPRP | 0.497
RRIRKRPPRLPRPRPRPTIVPRP | -0.0951
RRIRARPPRLPRPRPRPKITPRP | -0.0367
RRIRMRPPRLPRPRPRPESLPRP | 1.69
RRIRGRPPRLPRPRPRPVWEPRP | 0.761
RRIRIRPPRLPRPRPRPYAGPRP | -0.417
RRIRQRPPRLPRPRPRPPESPRP | 0.528
RRIRIRPPRLPRPRPRPFYKPRP | -0.0824
RRIRYRPPRLPRPRPRPGESPRP | 0.224
RRIRARPPRLPRPRPRPAIIPRP | 0.101
RRIRLRPPRLPRPRPRPLPSPRP | 3.98
RRIRRRPPRLPRPRPRPTDNPRP | 0.277
RRIRRRPPRLPRPRPRPAELPRP | -0.0392
RRIRWRPPRLPRPRPRPWNNPRP | -0.77
RRIRRRPPRLPRPRPRPWNEPRP | -0.208
RRIRKRPPRLPRPRPRPVNMPRP | 0.113
RRIRGRPPRLPRPRPRPIHSPRP | -0.441
RRIRGRPPRLPRPRPRPSVFPRP | 0.465
RRIRLRPPRLPRPRPRPAQHPRP | -0.132
RRIRRRPPRLPRPRPRPKKLPRP | 0.166
RRIRRRPPRLPRPRPRPAHMPRP | 0.405
RRIRTRPPRLPRPRPRPFGEPRP | -0.101
RRIRMRPPRLPRPRPRPKYQPRP | 0.0592
